Substrate in the data set: Nc1nc2c(ncn2[C@@H]2O[C@H](COP(=O)(O)OP(=O)(O)OP(=O)(O)O)[C@@H](O)[C@H]2O)c(=O)[nH]1
In words: steady-state primer extension, denaturing PAGE. Conditions: 200 nM primer/template DNA (Cy5P/T29(A)), misinsertion opposite template dA, 5 mM MnCl2, pH 7.5, 30 °C. Format: biochemical, Pseudomonas aeruginosa. The source says: steady-state primer extension, denaturing PAGE on Pa-PolDom

The text below walks through data of article PMC7072297, “Structural Determinants Responsible for the Preferential Insertion of Ribonucleotides by Bacterial NHEJ PolDom” (Biomolecules, 2020).

B1: Pa-PolDom (Pseudomonas aeruginosa PAO1) (protein)
chain: GARKASAGASRAATAGVRISHPQRLIDPSIQASKLELAEFHARYADLLLRDLRERPVSLVRGPDGIGGELFFQKHAARLKIPGIVQLDPALDPGHPPLLQIRSAEALVGAVQMGSIEFHTWNASLANLERPDRFVLDLDPDPALPWKRMLEATQLSLTLLDELGLRAFLKTSGGKGMHLLVPLERRHGWDEVKDFAQAISQHLARLMPERFSAVSGPRNRVGKIFVDYLRNSRGASTVAAYSVRAREGLPVSVPVFREELDSLQGANQWNLRSLPQRLDELAGDDPWADYAGTRQRISAAMRRQLGRG
notes: polymerization domain, residues 533-840; Arg532 codon replaced by start Met; E. coli BL21(DE3)
For B1, the Km is 1.211 ± 0.09 µM and the kcat is 0.92 ± 0.02 s⁻¹.

What is called Km is the substrate concentration at which the rate is half of its maximum. In general, kcat refers to the maximal rate divided by the concentration of active sites.
